Source: article PMC10415141

Experiments:
MCM8 WB;MCM9 680 WB = MCM8 WB;MCM9 680 WB (Homo sapiens;Homo sapiens, UniProt Q9UJA3;Q9NXL9 1-840;1-680, E519Q|E415Q); experiment: S1 nuclease protection
MCM8;MCM9 680 = MCM8;MCM9 680 (Homo sapiens;Homo sapiens, UniProt Q9UJA3;Q9NXL9 1-840;1-680, |); experiment: S1 nuclease protection
Sequence of MCM8;MCM9 680 (Q9UJA3 whole entry, chain 1 of 2): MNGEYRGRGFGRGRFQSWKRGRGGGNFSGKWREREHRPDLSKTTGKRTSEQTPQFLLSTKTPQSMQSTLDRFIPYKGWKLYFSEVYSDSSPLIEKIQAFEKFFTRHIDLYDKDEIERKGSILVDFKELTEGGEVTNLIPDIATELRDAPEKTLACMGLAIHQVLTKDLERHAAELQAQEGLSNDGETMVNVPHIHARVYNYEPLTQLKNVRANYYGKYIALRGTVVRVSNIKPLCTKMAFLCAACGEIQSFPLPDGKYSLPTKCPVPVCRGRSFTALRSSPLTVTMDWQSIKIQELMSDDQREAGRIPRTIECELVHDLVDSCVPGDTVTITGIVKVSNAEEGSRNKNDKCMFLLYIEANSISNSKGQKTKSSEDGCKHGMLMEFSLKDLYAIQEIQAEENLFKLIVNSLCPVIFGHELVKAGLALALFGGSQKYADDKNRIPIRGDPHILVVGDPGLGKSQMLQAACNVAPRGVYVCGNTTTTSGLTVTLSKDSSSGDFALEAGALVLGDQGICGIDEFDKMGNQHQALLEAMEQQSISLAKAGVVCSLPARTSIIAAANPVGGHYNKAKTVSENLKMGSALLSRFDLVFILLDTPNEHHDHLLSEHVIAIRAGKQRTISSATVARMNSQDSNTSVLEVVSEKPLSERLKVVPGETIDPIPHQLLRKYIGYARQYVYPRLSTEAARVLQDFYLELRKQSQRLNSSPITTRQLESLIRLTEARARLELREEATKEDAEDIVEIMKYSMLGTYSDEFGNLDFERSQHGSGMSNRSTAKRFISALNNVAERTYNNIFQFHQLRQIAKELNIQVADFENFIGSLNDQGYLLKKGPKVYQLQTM
Sequence of MCM8;MCM9 680 (Q9NXL9 1-680, chain 2 of 2): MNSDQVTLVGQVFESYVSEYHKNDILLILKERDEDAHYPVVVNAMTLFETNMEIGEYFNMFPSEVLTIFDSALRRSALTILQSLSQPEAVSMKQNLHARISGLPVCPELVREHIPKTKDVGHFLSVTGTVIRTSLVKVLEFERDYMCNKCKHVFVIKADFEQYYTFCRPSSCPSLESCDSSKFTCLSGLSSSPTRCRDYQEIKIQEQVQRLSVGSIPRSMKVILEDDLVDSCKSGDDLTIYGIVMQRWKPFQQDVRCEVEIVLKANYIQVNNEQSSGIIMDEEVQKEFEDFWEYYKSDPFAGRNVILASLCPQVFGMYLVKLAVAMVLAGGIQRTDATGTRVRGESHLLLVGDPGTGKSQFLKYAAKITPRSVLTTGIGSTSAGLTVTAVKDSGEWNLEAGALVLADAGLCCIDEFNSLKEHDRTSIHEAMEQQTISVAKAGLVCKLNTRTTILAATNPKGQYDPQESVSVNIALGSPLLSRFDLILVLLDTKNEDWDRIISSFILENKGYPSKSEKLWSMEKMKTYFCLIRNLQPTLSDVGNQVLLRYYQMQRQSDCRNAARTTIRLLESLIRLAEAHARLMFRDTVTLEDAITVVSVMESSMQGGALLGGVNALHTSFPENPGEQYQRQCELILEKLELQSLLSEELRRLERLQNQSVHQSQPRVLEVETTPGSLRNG

Sequence of MCM8 WB;MCM9 680 WB (Q9UJA3 whole entry E519Q, chain 1 of 2): as the sequence (Q9UJA3 whole entry, chain 1 of 2) above, with E519Q counted along it
Sequence of MCM8 WB;MCM9 680 WB (Q9NXL9 1-680 E415Q, chain 2 of 2): as the sequence (Q9NXL9 1-680, chain 2 of 2) above, with E415Q counted along it

B1: 3' long arm fork (DNA228/15Cy3) (mixed)
DNA 1: TTTTTTTTTTGCCGGTCGGGGTGGGTGGGAAGCGTAGGGAGAGGTG
DNA 2: CACCTCTCCCTACGCTTCCCACCCACCCCGACCGGCATCTGCTATGGTACGCTGAGCGAGAGTAGC
MCM8 WB;MCM9 680 WB
  binding result: binds
MCM8;MCM9 680
  binding result: binds
